Experimental findings from patent US20180031580A1, “USE OF IGF-1 AS PROGNOSTIC FACTOR IN CALCIFICATION OF AORTIC VALVES” (THE ASAN FOUNDATION, priority 2015, published 2018) are described below.

Test [1] deals with aortic valve vascular smooth muscle tissue. Briefly: ALP staining of aortic valve vascular smooth muscle tissue, osteocytogenesis level. Type of test: in vivo, mice. The following applies: wild-type or eNOS-deficient mice treated with DPP-4 and IGF-1 at the same time; FIG. 2a. How it is done: Wild-type mice or eNOS-deficient mice which are animal models with the aortic valve calcification were treated with insulin-like growth factor type 1 (IGF-1) alone or treated with dipeptidyl-peptidase 4 (DPP-4) and IGF-1 at the same time. Then, ALP staining was performed on the aortic valve vascular smooth muscle tissue, thereby comparing the […] level of tissue (FIG. 2a). Here, the aortic valve vascular smooth muscle tissue of the wild-type mice treated with nothing or the eNOS-deficient mice was used as a control group.
FIG. 2a are an image and a graph showing verification of the effect of DPP-4 on an action of IGF-1 inhibiting osteocytogenesis in the aortic valve vascular smooth muscle tissue of the wild-type mice or the eNOS-deficient mice.

The subject of the next test is ERK or Akt. Briefly: Western blot of phosphorylation of intracellular signaling proteins ERK or Akt in aortic valve vascular smooth muscle tissue. Type of test: in vivo. The following applies: eNOS-deficient mice treated with IGF-1 and DPP-4, 0, 5, 15 or 30 minutes; FIG. 2b. Here is the method: Further, in order to confirm whether the activation level of the protein involved in intracellular signaling was changed by osteocytogenesis according to DPP-4, the eNOS-deficient mice were treated with IGF-1 alone for 0, 5, 15 or 30 minutes, or treated with DPP-4 and IGF-1 at the same time, and then, the aortic valve vascular smooth muscle tissue was extracted from these mice. Then, a phosphorylation level of ERK or Akt which is a protein involved in intracellular signaling expressed in the extracted tissues was compared by western blot analysis (FIG. 2b). Here, β-actin was used as an internal control group.
FIG. 2b is a Western blot analysis image showing a change in the phosphorylation level of ERK or Akt which is the protein involved in intracellular signaling according to whether the DPP-4 is treated in the eNOS-deficient mice treated with IGF-1.
For orientation: Immunoblotting shows a protein as a band on a membrane.

B1: DPP-4: antigenic enzyme, membrane-bound glycoprotein, also referred to as CD26; cleaves two N-terminal peptides including proline (protein)
chain: NKGTDDATADSRKTYTLTDYLKNTYRLKLYSLRWISDHEYLYKQENNILVFNAEYGNSSVFLENSTFDEFGHSINDYSISPDGQFILLEYNYVKQWRHSYTASYDIYDLNKRQLITEERIPNNTQWVTWSPVGHKLAYVWNNDIYVKIEPNLPSYRITWTGKEDIIYNGITDWVYEEEVFSAYSALWWSPNGTFLAYAQFNDTEVPLIEYSFYSDESLQYPKTVRVPYPKAGAVNPTVKFFVVNTDSLSSVTNATSIQITAPASMLIGDHYLCDVTWATQERISLQWLRRIQNYSVMDICDYDESSGRWNCLVARQHIEMSTTGWVGRFRPSEPHFTLDGNSFYKIISNEEGYRHICYFQIDKKDCTFITKGTWEVIGIEALTSDYLYYISNEYKGMPGGRNLYKIQLSDYTKVTCLSCELNPERCQYYSVSFSKEAKYYQLRCSGPGLPLYTLHSSVNDKGLRVLEDNSALDKMLQNVQMPSKKLDFIILNETKFWYQMILPPHFDKSKKYPLLLDVYAGPCSQKADTVFRLNWATYLASTENIIVASFDGRGSGYQGDKIMHAINRRLGTFEVEDQIEAARQFSKMGFVDNKRIAIWGWSYGGYVTSMVLGSGSGVFKCGIAVAPVSRWEYYDSVYTERYMGLPTPEDNLDHYRNSTVMSRAENFKQVEYLLIHGTADDNVHFQQSAQISKALVDVGVDFQAMWYTDEDHGIASSTAHQHIYTHMSHFIKQCFSLP
As for B1, the “osteocytogenesis of aortic valve vascular smooth muscle tissue (ALP staining)” value in test [1] is on record as “intensified”. Moreover, the “phosphorylation level of ERK or Akt” value with ERK or Akt is “reduced”.
